± gives the standard deviation of the averaged measurements.
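Also: ATP exposure 15 min at 22 °C before imaging.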

The subject of this series is ATP. As to the kind of experiment: switch fluorescence ratio, 500 uM ATP over buffer (Cy3 cluster intensity, sum of 5 cycles each) (fold (ratio)); higher = stronger signal-on switching upon ATP binding; sequences stand for … in TCGTCGGCAGCGTCAGATGTGTATAAGAGACAGTTTTTTTTTTTTTTTTTTTTTTTTT…TC. Particulars: aptamer strand: ATP DNA aptamer (quencher-CACCTGGGGGAGTATTGCGGAGGAAGG + anchor), 100 nM annealed; ATP concentration: 500 uM. Put shortly: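 Switching-strand clusters labelled with Cy3 on a modified Illumina MiSeq flow-cell were annealed to 100 nM quencher-labelled ATP aptamer, imaged in selection buffer, and re-imaged after 15 min with 500 uM ATP at 22 °C. This was done over five cycles with NaOH stripping and re-annealing in between. The fluorescence ratio is summed target-cycle over summed buffer-cycle Cy3 intensity per cluster, averaged per switch-domain sequence, excluding clusters outside 100-1000 RFU.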
On to AACGGTCAGA, for which the switch fluorescence ratio is 1.02 ± 0.05. For CATGATGTGT, the switch fluorescence ratio came out at 1 ± 0.042. For AGTTTTGGGT, the switch fluorescence ratio is 0.967 ± 0.02.

As to TTATAGTTTC, the switch fluorescence ratio was determined as 1.03 ± 0.057. As for TTTGGTCGGA, the switch fluorescence ratio came to 1.019 ± 0.0039. Turning to AGTTGGCGGA, the switch fluorescence ratio was determined as 0.999 ± 0.024.

As to CCGAATGAGG, the switch fluorescence ratio came out at 0.995 ± 0.032. Take TGTTGGACTA: the switch fluorescence ratio came out at 0.9992 ± 0.0065. For the sequence GTTACGGGAC, the switch fluorescence ratio is 1.24 ± 0.015. With CATTAACGAG, the switch fluorescence ratio amounted to 1.013 ± 0.0062.

AAAGTACGGT: the switch fluorescence ratio is 1.21 ± 0.024. Take ACGAATTCTG: the switch fluorescence ratio was determined as 1.02 ± 0.042. Consider GGGTAATTAC, for which the switch fluorescence ratio stood at 1.048 ± 0.0053. As for TTACACTTGT, the switch fluorescence ratio was determined as 1 ± 0.032. Take ATTTTTGGCG: the switch fluorescence ratio worked out at 0.9867 ± 0.0088.

Turning to GATGTATAGA, the switch fluorescence ratio is 1.01 ± 0.022. Then TAGGCGGTGT, with 1.01 ± 0.012. For TTTATCGGTA, the switch fluorescence ratio worked out at 1.01 ± 0.03. Consider ATGAAGGGAA, for which the switch fluorescence ratio was found to be 0.999 ± 0.017. As for CATAGGTCTA, the switch fluorescence ratio came to 0.996 ± 0.019.

For the sequence TTTTACGGTT, the switch fluorescence ratio is 1.03 ± 0.069. On to CGTTGGGTTT, for which the switch fluorescence ratio was determined as 1.03 ± 0.054. Then GGGACATGGG, with 0.972 ± 0.041; and CTGATATGTA, with 0.969 ± 0.045. Consider CATGATTAGT, for which the switch fluorescence ratio was determined as 0.951 ± 0.041.

Consider GGCCCTGAGC, for which the switch fluorescence ratio was found to be 0.9991 ± 0.0025. To TTGTGGTTGG belongs 0.994 ± 0.021; to GGGGAATGAA, 1.019 ± 0.009. Regarding AAGGGGGTCC, the switch fluorescence ratio worked out at 1.03 ± 0.036.

Take ACGCTGGGGG: the switch fluorescence ratio came to 1.06 ± 0.041. For the sequence GTGGTGTGTT, the switch fluorescence ratio came to 1.05 ± 0.14. On to GTTTCGTCCA, for which the switch fluorescence ratio was found to be 2.1 ± 1.6. As for TGGTCCGGGG, the switch fluorescence ratio amounted to 1.01 ± 0.087. Then TATGGGAGGG, with 0.952 ± 0.022; and GGGGTGGAAT, with 1.03 ± 0.012; and GAGGGGTTAC, with 1.01 ± 0.05. Consider GGCTGGGATT, for which the switch fluorescence ratio amounted to 0.964 ± 0.02. For the sequence GGGGGCTTAC, the switch fluorescence ratio came to 1.01 ± 0.021.

Take TGGTTGCTCT: the switch fluorescence ratio came to 0.9891 ± 0.008. For the sequence CCATGGGAAA, the switch fluorescence ratio worked out at 0.961 ± 0.03.

On to TAAATGATTT, for which the switch fluorescence ratio turned out to be 1.01 ± 0.014.

For the sequence GCGCTCTTAT, the switch fluorescence ratio turned out to be 1.001 ± 0.003. On to TTATGAGCGG, for which the switch fluorescence ratio came to 1.02 ± 0.048. Take GACTTTGGGG: the switch fluorescence ratio came out at 1 ± 0.013. To GAGGGAACAG belongs 1.01 ± 0.013; to ATAGGGGGCA, 0.98 ± 0.023. Consider TATGAGGGCG, for which the switch fluorescence ratio came out at 1.04 ± 0.041. Consider AGAATCACTG, for which the switch fluorescence ratio came to 1.08 ± 0.04. For TTTTTGATTG, the switch fluorescence ratio amounted to 1.01 ± 0.014. Then TACGGCGGGG, with 1.02 ± 0.047; and CTATGGCGCA, with 1.03 ± 0.067. Consider TTGGTGGGCA, for which the switch fluorescence ratio came to 0.993 ± 0.038. Turning to GTATAATTCA, the switch fluorescence ratio is 0.975 ± 0.028. Then ACCAGGTCTA, with 1.07 ± 0.017; and TCCGTCGCAA, with 2.23 ± 0.41; and AAGGGGGGCT, with 0.996 ± 0.03. CTGCGGTGGG: the switch fluorescence ratio turned out to be 1.006 ± 0.0051.

With TTGGGCCGGT, the switch fluorescence ratio is 1 ± 0.037. In the case of ATCGCGACTA, the switch fluorescence ratio came out at 1.05 ± 0.036.

With TAGATTCTGT, the switch fluorescence ratio came out at 0.9951 ± 0.0032.

Consider AATGAGTTTT, for which the switch fluorescence ratio was 0.998 ± 0.027. With TGGAGGGTTT, the switch fluorescence ratio came out at 1.07 ± 0.1. On to GGGTGGACAC, for which the switch fluorescence ratio was found to be 0.947 ± 0.065. GGGGCGGCGG: the switch fluorescence ratio came out at 0.962 ± 0.066.

As for ATCAGGGGTT, the switch fluorescence ratio worked out at 1.34 ± 0.6. For TGTGATTTTT, the switch fluorescence ratio amounted to 1.01 ± 0.028. For TGGGGTAGTT, the switch fluorescence ratio amounted to 0.995 ± 0.01. As to CGGGGACAGA, the switch fluorescence ratio turned out to be 0.984 ± 0.041. With TTGCTGGGG, the switch fluorescence ratio worked out at 0.972 ± 0.037. With AAATTTATTA, the switch fluorescence ratio stood at 1.03 ± 0.037. Turning to TACTCGAGTT, the switch fluorescence ratio is 0.977 ± 0.015. For GATCATGTAC, the switch fluorescence ratio amounted to 1.14 ± 0.036. Consider CAGGGGGATT, for which the switch fluorescence ratio was 1.03 ± 0.042. Consider TCTCGGCTAT, for which the switch fluorescence ratio is 2.98 ± 0.2. Take TAAAAATCAT: the switch fluorescence ratio came to 1.01 ± 0.034.

On to TTTTGTACGG, for which the switch fluorescence ratio came to 1.01 ± 0.018. Take GGATTTTTCA: the switch fluorescence ratio was 0.985 ± 0.013.

As to CGGGCTAAGA, the switch fluorescence ratio is 1.02 ± 0.041. As to TTATCGTATT, the switch fluorescence ratio is 0.9872 ± 0.0053. CGGTATGGCT: the switch fluorescence ratio was determined as 0.9689 ± 0.0062. Take GGGAAGACTT: the switch fluorescence ratio is 1.02 ± 0.087. With AATCTCCGAG, the switch fluorescence ratio stood at 1.09 ± 0.031. Take CCGAGGGGGA: the switch fluorescence ratio was found to be 1.26 ± 0.17.

For the sequence AAATGGCATT, the switch fluorescence ratio is 1 ± 0.033. TGGTCGTGGG: the switch fluorescence ratio came out at 1.01 ± 0.032. Consider GTTTGTCTTT, for which the switch fluorescence ratio was found to be 1.02 ± 0.012. To CGAGGGGGCC belongs 0.97 ± 0.052; to TTGACGGTGT, 1.028 ± 0.0021. In the case of GTTTTATCCG, the switch fluorescence ratio came out at 1.025 ± 0.0045. With CGTACAGATA, the switch fluorescence ratio turned out to be 0.994 ± 0.027. AGGGGAAAGG: the switch fluorescence ratio was 0.984 ± 0.014.

For GGCGAAAGGG, the switch fluorescence ratio worked out at 1.02 ± 0.026.

ACGTGTGGGG: the switch fluorescence ratio came out at 1.05 ± 0.034. Regarding TTTCCGTTGG, the switch fluorescence ratio turned out to be 1.12 ± 0.17. To GTTAGCATTG belongs 1 ± 0.029; to GGATTTAATA, 1.02 ± 0.03; to GGGGGTAGAC, 1.01 ± 0.026. On to AGGGGACTTT, for which the switch fluorescence ratio was 0.978 ± 0.013.

As for TTATGAGCAA, the switch fluorescence ratio amounted to 1.8 ± 0.096. With TGTTAAATTT, the switch fluorescence ratio was 1.01 ± 0.045. As to TCTTGAATGG, the switch fluorescence ratio came out at 0.986 ± 0.0051. Regarding TTTATCCGCG, the switch fluorescence ratio was 1.25 ± 0.25.

For CTGAGGAGGA, the switch fluorescence ratio is 1.031 ± 0.0076. Then GATGTAAGAA, with 0.993 ± 0.028; and GGAATGCGGG, with 0.9701 ± 0.0077. With CTTGAATACT, the switch fluorescence ratio is 1.05 ± 0.03. With TGAGTGGCTT, the switch fluorescence ratio is 0.967 ± 0.034. In the case of TGTACGTGGC, the switch fluorescence ratio stood at 1.08 ± 0.086.

Take TTAAGGGGTT: the switch fluorescence ratio was found to be 1.03 ± 0.044. To TAGCTGAGGG belongs 0.997 ± 0.015.

Consider AAGCGTCTCA, for which the switch fluorescence ratio came to 0.997 ± 0.011. For TTTTCTTAGT, the switch fluorescence ratio worked out at 0.974 ± 0.021. With TAAGTAGGGT, the switch fluorescence ratio came to 1.01 ± 0.023. For the sequence ATGTGGACCT, the switch fluorescence ratio was 1.26 ± 0.065.

In the case of AAATACACGA, the switch fluorescence ratio was 1.06 ± 0.029. To GTTGCGATGA belongs 1.02 ± 0.013; to GAACCAGTAC, 1.82 ± 0.032. Then TTTAGGTCAA, with 0.9943 ± 0.0031. Turning to GATCTATGTG, the switch fluorescence ratio came out at 1.01 ± 0.042.

CTTGGTGGAC: the switch fluorescence ratio was determined as 0.97 ± 0.048.

Source of the values: the supplement of paper PMC10126150.
